According to patent EP4296674A1 (Université Toulouse III - Paul Sabatier, dated 2023):

B4: HadA of Mycobacterium tuberculosis fused to an enhanced Green Fluorescent Protein (eGFP) tag at its N-terminus (other)
chain: MALSADIVGMHYRYPDHYEVEREKIREYAVAVQNDDAWYFEEDGAAELGYKGLLAPLTFICVFGYKAQAAFFKHANIATAEAQIVQVDQVLKFEKPIVAGDKLYCDVYVDSVREAHGTQIIVTKNIVTNEEGDLVQETYTTLAGRAGEDGEGFSDGAA

Key:
[1] = target: HadB protein of Mycobacterium tuberculosis (untagged) (Mycobacterium tuberculosis)
[2] = target: N-terminal polyHis-tagged HadD of Mycobacterium tuberculosis (Mycobacterium tuberculosis); test: PDBePISA analysis of the HadBD crystal structure
[3] = target: N-terminal polyHis-tagged HadD of Mycobacterium tuberculosis (Mycobacterium tuberculosis); test: from the HadBD crystal structure
[4] = target: B4; test: pull-down from M. bovis BCG on anti-GFP magnetic beads, nanoLC-MS/MS proteomics
HadC-Ctrp fusion protein = target: T1, HadC-Ctrp fusion protein (Mycobacterium tuberculosis (HadC); …); test: split-Trp assay in M. smegmatis ΔhisA, positive control pair
T1 chain: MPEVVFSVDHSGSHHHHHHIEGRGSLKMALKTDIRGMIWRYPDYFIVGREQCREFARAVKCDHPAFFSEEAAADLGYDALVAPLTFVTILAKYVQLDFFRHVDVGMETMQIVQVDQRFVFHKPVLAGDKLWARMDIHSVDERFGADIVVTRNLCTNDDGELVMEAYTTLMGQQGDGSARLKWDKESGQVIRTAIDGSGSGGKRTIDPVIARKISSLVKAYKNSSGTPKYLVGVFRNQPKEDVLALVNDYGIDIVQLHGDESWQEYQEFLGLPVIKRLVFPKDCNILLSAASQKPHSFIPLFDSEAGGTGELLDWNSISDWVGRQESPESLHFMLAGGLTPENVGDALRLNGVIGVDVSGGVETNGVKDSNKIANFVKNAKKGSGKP

[5] = target: T2, HadD-Ctrp fusion protein (C-terminal fragment of S. cerevisiae Trp1p fused to the C-terminal end of HadD of … (Mycobacterium tuberculosis (HadD); …); test: split-Trp assay in M. smegmatis ΔhisA
T2 chain: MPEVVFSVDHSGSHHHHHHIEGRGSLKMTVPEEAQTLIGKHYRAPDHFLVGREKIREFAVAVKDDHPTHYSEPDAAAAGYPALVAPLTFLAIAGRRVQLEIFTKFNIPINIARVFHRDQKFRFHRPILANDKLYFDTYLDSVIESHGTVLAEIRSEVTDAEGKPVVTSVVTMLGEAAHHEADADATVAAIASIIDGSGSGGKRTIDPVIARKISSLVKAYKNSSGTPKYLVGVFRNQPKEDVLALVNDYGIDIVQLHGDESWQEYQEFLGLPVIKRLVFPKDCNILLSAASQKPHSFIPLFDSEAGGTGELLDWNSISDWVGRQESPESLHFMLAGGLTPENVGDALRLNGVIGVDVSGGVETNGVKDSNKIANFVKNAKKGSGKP

[6] = target: T3, Cfp10-Ctrp fusion protein (Mycobacterium tuberculosis (Cfp10); …); test: split-Trp assay in M. smegmatis ΔhisA, positive control pair
T3 chain: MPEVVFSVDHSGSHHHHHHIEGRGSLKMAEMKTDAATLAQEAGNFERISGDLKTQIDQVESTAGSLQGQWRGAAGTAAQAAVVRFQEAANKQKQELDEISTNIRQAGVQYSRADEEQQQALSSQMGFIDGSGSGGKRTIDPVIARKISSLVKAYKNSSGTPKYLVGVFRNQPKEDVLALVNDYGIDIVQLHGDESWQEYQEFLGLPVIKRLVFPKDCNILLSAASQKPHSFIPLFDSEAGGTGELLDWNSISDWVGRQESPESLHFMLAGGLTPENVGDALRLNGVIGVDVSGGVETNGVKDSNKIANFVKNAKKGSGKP

[7] = target: T4, HadD of M. bovis BCG (BCG_0547c) (Mycobacterium bovis BCG, UniProt P64726 1-166); test: pull-down from M. bovis BCG on anti-GFP magnetic beads, nanoLC-MS/MS proteomics
T4 sequence: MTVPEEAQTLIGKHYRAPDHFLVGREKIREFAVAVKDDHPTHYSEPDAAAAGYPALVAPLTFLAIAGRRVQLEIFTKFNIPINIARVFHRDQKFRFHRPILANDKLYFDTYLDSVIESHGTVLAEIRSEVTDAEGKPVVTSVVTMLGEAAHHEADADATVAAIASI

HadC (Rv0637) = target: T5, HadC (Rv0637) (Mycobacterium tuberculosis, UniProt P9WFJ9 1-166); test: as above
T5 sequence: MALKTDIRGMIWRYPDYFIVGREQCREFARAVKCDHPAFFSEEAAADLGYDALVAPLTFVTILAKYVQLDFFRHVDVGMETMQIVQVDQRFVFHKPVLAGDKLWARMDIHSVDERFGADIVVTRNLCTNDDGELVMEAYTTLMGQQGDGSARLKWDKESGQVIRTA

[8] = target: T2, HadD-Ctrp fusion protein (C-terminal …); test: split-Trp assay in M. smegmatis ΔhisA, growth on medium without Trp

Molecule: HadB protein of Mycobacterium tuberculosis (untagged) (enzyme)
- buried surface area [1]: 525 A^2
- ΔG (PDBePISA) [1]: -24.3 kJ/mol
- surface of heterodimerization (PDBePISA) [2]: 1340 Å^2
- ΔG of heterodimerization (PDBePISA) [2]: -46 kJ/mol
- total buried surface at each heterodimer interface [3]: 3840 A^2

B1: HadB protein of Mycobacterium tuberculosis (untagged) (enzyme)
chain: MALREFSSVKVGDQLPEKTYPLTRQDLVNYAGVSGDLNPIHWDDEIAKVVGLDTAIAHGMLTMGIGGGYVTSWVGDPGAVTEYNVRFTAVVPVPNDGKGAELVFNGRVKSVDPESKSVTIALTATTGGKKIFGRAIASAKLA
- binding result [4]: binds

B2: Ntrp-HadB fusion protein (N-terminal fragment of S. cerevisiae Trp1p fused to the N-terminal end of HadB of Mtb) (other)
chain: MPEVVFSVDHSGSGTMYPYDVPDYASSVINFTGSSGPLVKVCGLQSTEAAECALDSDADLLGIICVPNRGGSGSGLKMALREFSSVKVGDQLPEKTYPLTRQDLVNYAGVSGDLNPIHWDDEIAKVVGLDTAIAHGMLTMGIGGGYVTSWVGDPGAVTEYNVRFTAVVPVPNDGKGAELVFNGRVKSVDPESKSVTIALTATTGGKKIFGRAIASAKLA
- binding result (HadC-Ctrp fusion protein): binds
- binding result [5]: binds

B3: Ntrp-Esat6 fusion protein (other)
chain: MPEVVFSVDHSGSGTMYPYDVPDYASSVINFTGSSGPLVKVCGLQSTEAAECALDSDADLLGIICVPNRGGSGSGLKMTEQQWNFAGIEAAASAIQGNVTSIHSLLDEGKQSLTKLAAAWGGSGSEAYQGVQQKWDATATELNNALQNLARTISEAGQAMASTEGNVTGMFA
- binding result [6]: binds

Molecule: B4
- binding result [7]: binds
- binding result (HadC (Rv0637)): binds

B5: Ntrp-HadDMtb fusion protein (other)
chain: SSVINFTGSSGPLVKVCGLQSTEAAECALDSDADLLGIICVPNRMTVPEEAQTLIGKHYRAPDHFLVGREKIREFAVAVKDDHPTHYSEPDAAAAGYPALVAPLTFLAIAGRRVQLEIFTKFNIPINIARVFHRDQKFRFHRPILANDKLYFDTYLDSVIESHGTVLAEIRSEVTDAEGKPVVTSVVTMLGEAAHHEADADATVAAIASI
- binding result [8]: no binding
